The subject of this series is MBP5-TEV-paramyosin ΔSal (maltose binding protein domain and a paramyosin fragment linked by a TEV protease recognition sequence).

For the substance “commercially available TEV protease (New England Biolabs, Inc. Catalog #P8112S)”, the “cleavage of the substrate, 4° C., 1 hour” value is on record as “the commercially available enzyme only produced 62% cleavage in the same time”; the “cleavage of the substrate, 4° C., 3 hours” value is “the commercial enzyme cleaved only 76% and 83% of the substrate at these times, respectively”; the “cleavage of the substrate, 4° C., 5 hours” value was “the commercial enzyme cleaved only 76% and 83% of the substrate at these times, respectively”.

The record behind these values is patent publication US20260234592.
